Patent US10041047B2, “Compositions and methods for epithelial stem cell expansion and culture” (The Brigham and Women's Hospital, Inc., priority 2013, dated 2018)

Key:
[1] = system: Lgr5+ stem cells in small intestinal crypts; assay: Small intestinal crypt culture from Lgr5-GFP mice in Matrigel: cell proliferation and Lgr5-GFP expression; assay type: cell-based, mouse; settings: for requirement of growth factor to maintain self-renewal of Lgr5+ stem cells: crypts 6 days in the CV condition (CHIR 3 μM, VPA 1 mM)
Description: Crypts and single Lgr5-GFP cells were isolated as previously described (Sato et al., 2009). Briefly, the proximal half of the small intestine was harvested, opened longitudinally, and washed with cold PBS to remove luminal content. The tissue was then cut into 2-4 mm pieces with scissors and further washed 5-10 times with cold PBS by pipetting up and down using a 10-ml pipette. Tissue fragments were incubated with 2 mM EDTA in PBS for 30 min on ice. After removal of EDTA, tissue fragments were washed with PBS to release crypts. Supernatant fractions enriched in crypts were collected, passed through a 70 μm cell strainer and centrifuged at 300 g for 5 minutes. The cell pellet was re-suspended with cell culture media without growth factors and centrifuged at 150 g to remove single cells. Crypts were then cultured or used for single cell isolation. To obtain single cells, crypts were incubated in culture medium for 45 minutes at 37° C. and triturated with a glass pipette. Dissociated cells were passed through 20 μm cell strainer, negative stained with propidium iodide and single viable GFP-high cells were sorted by flow cytometry (FACS Aria, BD) as previously described (Sato et al., 2009). Small intestinal crypts isolated from Lgr5-EGFP-ires-CreERT2 mice were embedded in Matrigel and cultured under conventional culture conditions in the presence of EGF, Noggin and R-spondin 1 (collectively referred to as ENR) leading to organoids with crypts and villus-like domains and GFP^+ cells at the crypt tips, consistent with previous reports (Sato et al., 2009). Isolated crypts or single cells were cultured as previously described (Sato et al., 2009) with minimal modification. Briefly, crypts or single cells were entrapped in Matrigel and plated at the center of wells in a 24-well plate. After polymerization of Matrigel (growth factor reduced; BD Bioscience), 500 μl of culture medium (Advanced DMEM/F12 (Life Technologies)) was added containing growth factors including EGF (50 ng/ml, Life Technologies), Noggin (100 ng/ml, Peprotech) and R-spondin 1 (500 ng/ml, R&D) and small molecules including CHIR99021 (3 μM, Stemgent) and Valproic Acid (1 mM, Sigma-Aldrich). For comparison of different culture conditions, small molecules or growth factors were added to freshly isolated crypts immediately after plating in Matrigel to test the ability to minimize potential differentiation of the ISC within the crypts and thus sustain crypt cultures. Cell culture media was changed every other day. For single cell culture, cells were embedded in Matrigel containing Jagged-1 peptide (1 μM; AnaSpec) and Y-27632 (10 μM; Tocris) was added for the first 2 days. Cells were passaged either as cell colonies as previously described (Sato et al., 2009) or as single cells. […]

[2] = system: Lgr5+ stem/progenitor cells derived from the mouse inner ear; assay: Culture of inner ear (cochlear) Lgr5-GFP epithelial cells in Matrigel; assay type: cell-based; settings: 8 day cultures; added to EGF+CV or to the EGF+bFGF combination (FIG. 14D, 14E)
From the text: The same culture condition (EGF, Noggin, R-spondin1, or “ENR”) as used in Lgr5+ small intestinal stem cell cultures was first established.
Isolated organ of Corti from Lgr5-GFP mice were dissociated into single cells using accutase and cultured in multiple combinations of soluble factors and small molecules in Matrigel for 8 days. The resulting cultures were further dissociated into single cells and analyzed using FACS. […] In addition, the combination of EGF, bFGF and IGF-1 (designated as EFI) improved cell proliferation and GFP expression compared with the ENR condition (FIG. 14A-14C).
To further investigate the effects of individual growth factors when combined with CHIR and VPA, growth factors including Mitogenic growth factors (EGF, bFGF and IGF-1) as well as the Wnt agonist R-spondin 1 in combination with CHIR and VPA were tested.

B1: Wnt3a: Wnt pathway activator protein (protein, UniProt P56704 19-352, looked up)
Protein Wnt-3a: SYPIWWSLAVGPQYSSLGSQPILCASIPGLVPKQLRFCRNYVEIMPSVAEGIKIGIQECQHQFRGRRWNCTTVHDSLAIFGPVLDKATRESAFVHAIASAGVAFAVTRSCAEGTAAICGCSSRHQGSPGKGWKWGGCSEDIEFGGMVSREFADARENRPDARSAMNRHNNEAGRQAIASHMHLKCKCHGLSGSCEVKTCWWSQPDFRAIGDFLKDKYDSASEMVVEKHRESRGWVETLRPRYTYFKVPTERDLVYYEASPNFCEPNPETGSFGTRDRTCNVSSHGIDGCDLLCCGRGHNARAERRREKCRCVFHWCCYVSCQECTRVYDVHTCK
Question: With B1 as the molecule, how does the “cell proliferation of crypt cells (organoid size and cell numbers)” value ([1]; crypts cultured 6 days, agent added to ENR condition, compared to ENR) read?
Answer: Its value is “increased crypt proliferation”.

B2: R-spondin 1: agent that binds to the LGR5 receptor, Wnt agonist (protein, UniProt Q2MKA7 21-263, looked up)
R-spondin-1: SRGIKGKRQRRISAEGSQACAKGCELCSEVNGCLKCSPKLFILLERNDIRQVGVCLPSCPPGYFDARNPDMNKCIKCKIEHCEACFSHNFCTKCKEGLYLHKGRCYPACPEGSSAANGTMECSSPAQCEMSEWSPWGPCSKKQQLCGFRRGSEERTRRVLHAPVGDHAACSDTKETRRCTVRRVPCPEGQKRRKGGQGRRENANRNLARKESKEAGAGSRRRKGQQQQQQQGTVGPLTSAGPA
Question: B2 was tested. Which “requirement of growth factor to maintain self-renewal of Lgr5+ stem cells” value [1] did it give?
Answer: The value was “still required”.

Question: And the “GFP expression on addition of a growth factor” value [2]?
Answer: The value was “slightly increased”.

B3: Noggin: inhibitor of Bone Morphogenic Proteins (protein, UniProt Q13253 28-232, looked up)
Noggin: QHYLHIRPAPSDNLPLVDLIEHPDPIFDPKEKDLNETLLRSLLGGHYDPGFMATSPPEDRPGGGGGAAGGAEDLAELDQLLRQRPSGAMPSEIKGLEFSEGLAQGKKQRLSKKLRRKLQMWLWSQTFCPVLYAWNDLGSRFWPRYVKVGSCFSKRSCSVPEGMVCKPSKSVHLTVLRWRCQRRGGQRCGWIPIQYPIISECKCSC
Question: Which “requirement of growth factor to maintain self-renewal of Lgr5+ stem cells” value [1] does the source give for B3 here?
Answer: Its value is “still required”.

B4: R-Spondin 2: agent that binds to the LGR5 receptor (protein, UniProt Q6UXX9 22-243, looked up)
R-spondin-2: QGNRWRRSKRASYVSNPICKGCLSCSKDNGCSRCQQKLFFFLRREGMRQYGECLHSCPSGYYGHRAPDMNRCARCRIENCDSCFSKDFCTKCKVGFYLHRGRCFDECPDGFAPLEETMECVEGCEVGHWSEWGTCSRNNRTCGFKWGLETRTRQIVKKPVKDTILCPTIAESRRCKMTMRHCPGGKRTPKAKEKRNKKKKRKLIERAQEQHSVFLATDRANQ
Question: For B4, which “organoid formation (number of organoids formed at day 5)” value ([1]; ENR condition, R-spondin 2 compared to R-spondin 1 at multiple concentrations) is on record?
Answer: The value was “better efficacy at lower concentrations”.
